Experimental data published in the supplement of paper PMC9170038.

System: K4 kissing-loop RNA reporter
Experiment: apparent KD of K4 kissing-loop reporter; higher = weaker reporter binding
Settings: Eterna round: R107; input ligand: none
Protocol: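 RNA-MaP round R107: designed RNA switches with theophylline, tryptophan, arginine or FMN aptamers are transcribed on-chip within common flanks. They are titrated with a labelled K4 kissing-loop RNA reporter in RNA-MaP buffer (100 mM Tris pH 7.5, 80 mM KCl, 4 mM MgCl2), without ligand or with the indicated ligand. Median apparent KD per design.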
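Also: bound reporter read as fluorescence of individual clusters on recovered sequencing chips by microscopy, with normalized cluster intensities fitted with a binding model.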

| Sequence | apparent KD of K4 kissing-loop reporter [nM] |
| --- | --- |
| GUAUCGCUAGGAGGAUAUUUCAAUCUGACUCUUUGAGUUAGUACGGAGUGAUGUUCCGAUUUACGGAAAGAAGGCCUAGUGAUAC [FMN B 11] | 378 |
| UGACUGGAUGGAAGGAGCGCUAAACUCCUAGUGAUGUUAGGGAUAUGAGGCAAAGCCUCGAAGCAGGUAGGUCGCCAUCUAGUCU [FiskerMod 20 - Jieux - Same State - Arginine B] | 148 |
| AUUCGAUCAGUGAUGUUGAUCAAAGUCGAAGGAGCGGACGAAAGUCCAGGUAGGUCGCGACUACAAGGUGUUAAGACACCUCGAA [Spvincent t9 mod #OpenEnded] | 237 |
| AGAGUUAUGCGAGGAUAUGCGGUUAGUACUCAAAGAGUACUAACGGCAGAGUGAUGUUCUGUGAAAGCAGAAGGUGCAUAACUCA [Omei KL FMN B SS B v9] | 1090 |
| GUUACGCAUGGAAGGAGCGCAUGCUCAACUAUAAGCUCAGUGAUGUUGAGCAUUUUUUUUUUGCAGGUAGGUCGCCAUGUGUAAC [Ex Arginine B K4 29] | 386 |
| AGAUUCUUUUUUUUAUUUAAGUUUUCAGAAGGAGCGUGGUAGUACACAGGUAGGUCGCUGAAUUUUGGGCUAGUGAUGUUAGUUA [whbob_SS_Arginine_A_sa115] | 221 |
| GGGUCAGUCUGAAGGAGCGGCCAGACAGAGCAGUGAUGUUGCUCCUAAUUUAAAAGUGUCGGCCAGGUAGGUCGCAGAUUGGCUC [Dienralais] | 161 |
| CAGUUCUAUUCCGGUAGUGAUGUUACCAAGCGAGGACCGGUACGGCCGCCACUCGAGUGACAGACGUACUGGUAUCACCCGCUUC | 164 |
| GGAUCCACCAGUGAUGUUGGAGAAAACUCCAAGGAUAUGACGAAAGUCAGAAGGUGGUAGACUGGACAAAGUCCGGUAGGAUCCA [FmnA10 A78] | 360 |
| AUCUAGAUGCGAAGGAGCGCCUCAACGCGCUAUCUAUGGAGUGAUGUUCCAACGUAUGAGAGGCAGGUAGGUCGCGCAUCUAGAA [Arg B Ex t1] | 132 |
| AGGCACGAGCAAGGAUAUCGAGUGGAGUGAUGUUCUGCCGACCCAGGACCGAAAGGUCCUGGGUCGCGAGAAGGUGCUCGUGCCU [#2 Same State - FMN A Attempt #8 (HarryS)] | 949 |
| AAUUUAUAUUUGUUCUUCAAAUGUUCAGAAGGAGCGUGAAUUAUCACAGGUAGGUCGCUGGGCUAGUGAUGUUGGCUAUAUACUA [whbob_Ex_Arginine_A_2t126] | 195 |
| GGCAGUGAUGUUGCCUAAGCAACGCAUGCGGAGGAUAUUCGUUCGGGAAGAAGGCCGCAGCGUUCUCUCGAGUGAUGUUCGAGUA [Same State FMN A GF 21] | 176 |
| GUAUCAGUGAUGUUGGUAGGCGAGCGGGAUACCAGCCAAGACUCAGGCCCUUGGCAGCCCACAUAUCCCACGUAGAUAGUAGCUC [Same State - Theophylline A (Freestyle 15)] | 149 |
| UUGUAAAAGUCGGCCGCCACUCCGGGCCCUAUAAAUGGGCGCAGUGAUGUUGCGGCUAGGCCUCUGAGGACCGGGACUUUAUAGC [Xeismaarbe] | 125 |
| ACGUCCGGAUUGAUCGUGGGCAUGGUCGAUACCAGUAGUUUAAUCUACCCUUGGCAGCGACAUGAGUGAUGUUCAUGUGCGAUGA [KL-XTheo-A7 #analogue] | 173 |
| UUUGGAUUGCGCGAAGAGUGCAAGCGCCAACGAGGACCGGUACGGCCGCCACUCGCGGAGGAGUCCAGUGAUGUUGGACGGCCCG [Laraones] | 281 |
| AAGGCAAUUCGAGGAUAUCACAUACACUCCUUGAAUCAAGGAGUGAUGUUCCUUGAAGUGUAUGCAUGAGAAGGCGAAUUGCCUU [#05 K4 FMN B Same State] | 95.4 |
| UUUUGGUACUGAGGAUAUUCGAAGAAAUAUAGUGAUGUUAUAUAAGGAGGAGGAGGGAGGGAGGAAGGAGAAGGCAGAAGAGGAG [ExFMNB.G] | 235 |
| UCUGGAGUAUAUGAUACCAGCAGUGAGAGACAGGAAGUAUAGUGAUGUUAUAUGAGAGAAUGCCCUUGGCAGCGUGUGCGGUGGG [SSTheophylB.R] | 71.1 |
| GUAUGUGAUGGAAACAUCGCAUACACUGAUACCAGUAUCGAUAGAUACCCUUGGCAGCAGAAAACUGCAAUUGGAGUGAUGUUCC [Ex Theophylline A K4 1] | 229 |
| UGUCUUCAGUGAUGUUGAUGACAACACUUAAAGGAUAUGCGAGAGAGCAGAAGGUUAAACAACGCGCAAAUCAAGGAGGGUCUAG [theeternabot_exclusion_KL_FMN_A_30] | 178 |

Same assay, conditions: Eterna round: R107; input ligand: theophylline 20 uM

| Sequence | apparent KD of K4 kissing-loop reporter [nM] |
| --- | --- |
| UAGCGAUGAAGUGAUACCAGAGAGUGAUGUUCUUUUUUUAUUCAGAAUACUGUCGCCUUGCUCCCUUGGCAGCACGCAGGCGCAG [theeternabot_exclusion_KL_Theo_B_18] | 311 |
| AAGGGCUAGGCGGCCGCCACUGGUCGUGAACACAUACGAGCCAGUGAUGUUGGUAUUGUGUGCGGCAGGACCGGGCCUAGCCGAA [Exclusion - Tryptophan B (Freestyle 24)] | 409 |
| UGAUAGGACAGAAGGAGCGGUAGUGAUGUUACCAAAAGGAUAAGGUGUCAAAAGACACCCUGCCAGGUAGGUCGCUGUCCUAUCU | 98.8 |
| UAGGAGUGAUGUUCCAUAUCUUGAGCCGAAGGAGCGCCUUUAUAGGCAGGUAGGUCGCGGCAGAAGGUACCAGUGAUGUUGGAAA [Same State Arginine A GF6] | 145 |
| UUACCAAGUGAUGUUUGGAAAUAUCCUAGGCAGGAUAUGCGGAAACGCAGAAGGGCCACCUUAUAGUGAAGGAAACUUCGCUAUU [Ex FMN A 2] | 141 |
